Data: doi:10.1101/557116 (bioRxiv, 2019)
Where a chain is given by its changes, count along the chain named. Names may count otherwise.

B1: GST-BST2 (80-147) (domain or fragment, human, UniProt Q10589 80-147, looked up)
chain: GFQDVEAQAATCNHTVMALMASLDAEKAQGQKKVEELEGEITTLNHKLQDASAEVERLRRENQVLSVR
B2: BST2 ectodomain (residues 47 to 159) WT (domain or fragment, human, UniProt Q10589 47-159, looked up)
chain: KANSEACRDGLRAVMECRNVTHLLQQELTEAQKGFQDVEAQAATCNHTVMALMASLDAEKAQGQKKVEELEGEITTLNHKLQDASAEVERLRRENQVLSVRIADKKYYPSSQD
B3: BST2 ectodomain (residues 47 to 159) L70D (domain or fragment, human, UniProt Q10589 47-159, looked up)
chain: B2 chain with L24D
B4: BST2 ectodomain (residues 47 to 159) T90P (domain or fragment, human, UniProt Q10589 47-159, looked up)
chain: B2 chain with T44P
B5: BST2 ectodomain (residues 47 to 159) D129A (domain or fragment, human, UniProt Q10589 47-159, looked up)
chain: B2 chain with D83A
B6: BST2 ectodomain (residues 47 to 159) L127C (domain or fragment, human, UniProt Q10589 47-159, looked up)
chain: B2 chain with L81C
B7: BST2 ectodomain (residues 47 to 159) R136A (domain or fragment, human, UniProt Q10589 47-159, looked up)
chain: B2 chain with R90A
B8: BST2 ectodomain (residues 47 to 159) Q87H (domain or fragment, human, UniProt Q10589 47-159, looked up)
chain: B2 chain with Q41H

Assays:
[1] = molecular target: bacILT7 24-435 (human, UniProt P59901 24-435); assay: SPR
Chain of bacILT7 24-435 (P59901 24-435): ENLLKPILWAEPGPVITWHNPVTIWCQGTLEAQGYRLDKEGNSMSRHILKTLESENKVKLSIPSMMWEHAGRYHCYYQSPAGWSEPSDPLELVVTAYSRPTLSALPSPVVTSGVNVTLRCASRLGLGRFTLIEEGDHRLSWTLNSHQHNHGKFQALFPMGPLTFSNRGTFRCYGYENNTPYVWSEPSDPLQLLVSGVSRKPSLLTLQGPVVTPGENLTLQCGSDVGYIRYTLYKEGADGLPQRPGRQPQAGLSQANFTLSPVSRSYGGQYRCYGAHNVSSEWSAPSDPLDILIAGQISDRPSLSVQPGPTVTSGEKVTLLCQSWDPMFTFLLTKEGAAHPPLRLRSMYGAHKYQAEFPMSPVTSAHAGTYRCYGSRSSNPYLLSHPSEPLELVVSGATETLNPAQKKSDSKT

[2] = molecular target: bacILT7 24-223 (human, UniProt P59901 24-223, fluorescent label (Protein Labeling Kit RED-NHS)); assay: MST
Chain of bacILT7 24-223 (P59901 24-223): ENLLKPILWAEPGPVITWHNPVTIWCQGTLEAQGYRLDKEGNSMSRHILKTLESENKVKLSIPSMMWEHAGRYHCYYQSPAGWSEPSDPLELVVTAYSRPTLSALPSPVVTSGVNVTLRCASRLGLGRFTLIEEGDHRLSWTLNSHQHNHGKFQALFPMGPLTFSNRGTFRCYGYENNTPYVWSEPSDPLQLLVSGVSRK

[3] = molecular target: the molecule itself; assay: cross-linking

Row | Binder | Kd [2] | other results
1 | B1 | – | Kd [1]: 2.62 µM; koff [1]: 0.00238 s⁻¹; kon [1]: 908 M⁻¹ s⁻¹
2 | B2 | 2.45 ± 0.3 µM | –
3 | B3 | 5.55 ± 1 µM | –
4 | B4 | 4.49 ± 0.9 µM | –
5 | B5 | – | stoichiometry N [3]: 2
6 | B6 | 6.45 ± 1.2 µM | –
7 | B7 | – | stoichiometry N [3]: 2
8 | B8 | 5.06 ± 1.1 µM | –
